# Measured values from US20130005646A1 (Novo Nordisk, published 2013).
# Starred links: 1 amine or outer side, 2 acyl side, 3 side chain; linkers in the order of their positions; H or OH if unused. Positions of bridges follow the written chain, without caps; N, C: chain ends. Groups on a side chain read outwards from the residue. No end group written: not given here. *: point of attachment. C20 diacid = O=C(O)CCCCCCCCCCCCCCCCCCC(=O)*; C18 diacid = O=C(O)CCCCCCCCCCCCCCCCC(=O)*; γGlu = O=C(O)[C@H](CCC(=O)[*:2])N[*:1]; AEEA = NCCOCCOCC(=O)O
# B1: N-alpha-[(S)-4-Carboxy-4-(19-carboxynonadecanoylamino)butyryl]-[Glu14,His17,Gln21,Pro37]-pramlintide (peptide)
# peptide: {C20 diacid-γGlu}-KCNTATCATQRLAEFLHHSSQNFGPILPPTNVGSNTP-NH2
# modifications: disulfide 2-7
# SMILES: CC[C@H](C)[C@H](NC(=O)[C@@H]1CCCN1C(=O)CNC(=O)[C@H](Cc1ccccc1)NC(=O)[C@H](CC(N)=O)NC(=O)[C@H](CCC(N)=O)NC(=O)[C@H](CO)NC(=O)[C@H](CO)NC(=O)[C@H](Cc1c[nH]cn1)NC(=O)[C@H](Cc1c[nH]cn1)NC(=O)[C@H](CC(C)C)NC(=O)[C@H](Cc1ccccc1)NC(=O)[C@H](CCC(=O)O)NC(=O)[C@H](C)NC(=O)[C@H](CC(C)C)NC(=O)[C@H](CCCNC(=N)N)NC(=O)[C@H](CCC(N)=O)NC(=O)[C@@H](NC(=O)[C@H](C)NC(=O)[C@@H]1CSSC[C@H](NC(=O)[C@H](CCCCN)NC(=O)CC[C@H](NC(=O)CCCCCCCCCCCCCCCCCCC(=O)O)C(=O)O)C(=O)N[C@@H](CC(N)=O)C(=O)N[C@@H]([C@@H](C)O)C(=O)N[C@@H](C)C(=O)N[C@@H]([C@@H](C)O)C(=O)N1)[C@@H](C)O)C(=O)N[C@@H](CC(C)C)C(=O)N1CCC[C@H]1C(=O)N1CCC[C@H]1C(=O)N[C@H](C(=O)N[C@@H](CC(N)=O)C(=O)N[C@H](C(=O)NCC(=O)N[C@@H](CO)C(=O)N[C@@H](CC(N)=O)C(=O)N[C@H](C(=O)N1CCC[C@H]1C(N)=O)[C@@H](C)O)C(C)C)[C@@H](C)O
# B2: N-alpha-[(S)-4-Carboxy-4-(19-carboxynonadecanoylamino)butyryl]-[Glu14,His17,Gln35,Pro37]-pramlintide (peptide)
# peptide: {C20 diacid-γGlu}-KCNTATCATQRLAEFLHHSSNNFGPILPPTNVGSQTP-NH2
# modifications: disulfide 2-7
# SMILES: CC[C@H](C)[C@H](NC(=O)[C@@H]1CCCN1C(=O)CNC(=O)[C@H](Cc1ccccc1)NC(=O)[C@H](CC(N)=O)NC(=O)[C@H](CC(N)=O)NC(=O)[C@H](CO)NC(=O)[C@H](CO)NC(=O)[C@H](Cc1c[nH]cn1)NC(=O)[C@H](Cc1c[nH]cn1)NC(=O)[C@H](CC(C)C)NC(=O)[C@H](Cc1ccccc1)NC(=O)[C@H](CCC(=O)O)NC(=O)[C@H](C)NC(=O)[C@H](CC(C)C)NC(=O)[C@H](CCCNC(=N)N)NC(=O)[C@H](CCC(N)=O)NC(=O)[C@@H](NC(=O)[C@H](C)NC(=O)[C@@H]1CSSC[C@H](NC(=O)[C@H](CCCCN)NC(=O)CC[C@H](NC(=O)CCCCCCCCCCCCCCCCCCC(=O)O)C(=O)O)C(=O)N[C@@H](CC(N)=O)C(=O)N[C@@H]([C@@H](C)O)C(=O)N[C@@H](C)C(=O)N[C@@H]([C@@H](C)O)C(=O)N1)[C@@H](C)O)C(=O)N[C@@H](CC(C)C)C(=O)N1CCC[C@H]1C(=O)N1CCC[C@H]1C(=O)N[C@H](C(=O)N[C@@H](CC(N)=O)C(=O)N[C@H](C(=O)NCC(=O)N[C@@H](CO)C(=O)N[C@@H](CCC(N)=O)C(=O)N[C@H](C(=O)N1CCC[C@H]1C(N)=O)[C@@H](C)O)C(C)C)[C@@H](C)O
# B3: N-alpha-[(S)-4-Carboxy-4-(19-carboxynonadecanoylamino)butyryl]-Glu-[Glu14,His17,Gln21,His35]-pramlintide (peptide)
# peptide: {C20 diacid-γGlu}-EKCNTATCATQRLAEFLHHSSQNFGPILPPTNVGSHTY-NH2
# modifications: disulfide 3-8; not fully specified; printed as N-alpha-[(S)-4-Carboxy-4-(19-carboxynonadecanoylamino)butyryl]-Glu-[Glu14,His17,Gln21,His35]-pramlintide
# B4: N-epsilon25-[2-(2-{2-[2-(2-{2-[(S)-4-Carboxy-4-(17-carboxyheptadecanoylamino)butyrylamino]ethoxy}ethoxy)acetylamino]ethoxy}ethoxy)acetyl]-[Glu14,Lys25]-pramlint … (peptide)
# peptide: KCNTATCATQRLAEFLVHSSNNFGK([AEEA-AEEA-γGlu-C18 diacid])ILPPTNVGSNTY-NH2
# modifications: disulfide 2-7; N-terminus assumed
# SMILES: CC[C@H](C)[C@H](NC(=O)[C@H](CCCCNC(=O)COCCOCCNC(=O)COCCOCCNC(=O)CC[C@H](NC(=O)CCCCCCCCCCCCCCCCC(=O)O)C(=O)O)NC(=O)CNC(=O)[C@H](Cc1ccccc1)NC(=O)[C@H](CC(N)=O)NC(=O)[C@H](CC(N)=O)NC(=O)[C@H](CO)NC(=O)[C@H](CO)NC(=O)[C@H](Cc1c[nH]cn1)NC(=O)[C@@H](NC(=O)[C@H](CC(C)C)NC(=O)[C@H](Cc1ccccc1)NC(=O)[C@H](CCC(=O)O)NC(=O)[C@H](C)NC(=O)[C@H](CC(C)C)NC(=O)[C@H](CCCNC(=N)N)NC(=O)[C@H](CCC(N)=O)NC(=O)[C@@H](NC(=O)[C@H](C)NC(=O)[C@@H]1CSSC[C@H](NC(=O)[C@@H](N)CCCCN)C(=O)N[C@@H](CC(N)=O)C(=O)N[C@@H]([C@@H](C)O)C(=O)N[C@@H](C)C(=O)N[C@@H]([C@@H](C)O)C(=O)N1)[C@@H](C)O)C(C)C)C(=O)N[C@@H](CC(C)C)C(=O)N1CCC[C@H]1C(=O)N1CCC[C@H]1C(=O)N[C@H](C(=O)N[C@@H](CC(N)=O)C(=O)N[C@H](C(=O)NCC(=O)N[C@@H](CO)C(=O)N[C@@H](CC(N)=O)C(=O)N[C@H](C(=O)N[C@@H](Cc1ccc(O)cc1)C(N)=O)[C@@H](C)O)C(C)C)[C@@H](C)O
# B5: N-alpha-[(S)-4-Carboxy-4-(19-carboxynonadecanoylamino)butyryl]-[Glu14,His17,Asp21,His35]-pramlintide (peptide)
# peptide: {C20 diacid-γGlu}-KCNTATCATQRLAEFLHHSSDNFGPILPPTNVGSHTY-NH2
# modifications: disulfide 2-7
# SMILES: CC[C@H](C)[C@H](NC(=O)[C@@H]1CCCN1C(=O)CNC(=O)[C@H](Cc1ccccc1)NC(=O)[C@H](CC(N)=O)NC(=O)[C@H](CC(=O)O)NC(=O)[C@H](CO)NC(=O)[C@H](CO)NC(=O)[C@H](Cc1c[nH]cn1)NC(=O)[C@H](Cc1c[nH]cn1)NC(=O)[C@H](CC(C)C)NC(=O)[C@H](Cc1ccccc1)NC(=O)[C@H](CCC(=O)O)NC(=O)[C@H](C)NC(=O)[C@H](CC(C)C)NC(=O)[C@H](CCCNC(=N)N)NC(=O)[C@H](CCC(N)=O)NC(=O)[C@@H](NC(=O)[C@H](C)NC(=O)[C@@H]1CSSC[C@H](NC(=O)[C@H](CCCCN)NC(=O)CC[C@H](NC(=O)CCCCCCCCCCCCCCCCCCC(=O)O)C(=O)O)C(=O)N[C@@H](CC(N)=O)C(=O)N[C@@H]([C@@H](C)O)C(=O)N[C@@H](C)C(=O)N[C@@H]([C@@H](C)O)C(=O)N1)[C@@H](C)O)C(=O)N[C@@H](CC(C)C)C(=O)N1CCC[C@H]1C(=O)N1CCC[C@H]1C(=O)N[C@H](C(=O)N[C@@H](CC(N)=O)C(=O)N[C@H](C(=O)NCC(=O)N[C@@H](CO)C(=O)N[C@@H](Cc1c[nH]cn1)C(=O)N[C@H](C(=O)N[C@@H](Cc1ccc(O)cc1)C(N)=O)[C@@H](C)O)C(C)C)[C@@H](C)O
# Columns and labels:
# [1] = target: T1, human calcitonin (a) receptor (human, UniProt P30988 25-474); assay: cell-based or functional assay
# T1 sequence (looked up): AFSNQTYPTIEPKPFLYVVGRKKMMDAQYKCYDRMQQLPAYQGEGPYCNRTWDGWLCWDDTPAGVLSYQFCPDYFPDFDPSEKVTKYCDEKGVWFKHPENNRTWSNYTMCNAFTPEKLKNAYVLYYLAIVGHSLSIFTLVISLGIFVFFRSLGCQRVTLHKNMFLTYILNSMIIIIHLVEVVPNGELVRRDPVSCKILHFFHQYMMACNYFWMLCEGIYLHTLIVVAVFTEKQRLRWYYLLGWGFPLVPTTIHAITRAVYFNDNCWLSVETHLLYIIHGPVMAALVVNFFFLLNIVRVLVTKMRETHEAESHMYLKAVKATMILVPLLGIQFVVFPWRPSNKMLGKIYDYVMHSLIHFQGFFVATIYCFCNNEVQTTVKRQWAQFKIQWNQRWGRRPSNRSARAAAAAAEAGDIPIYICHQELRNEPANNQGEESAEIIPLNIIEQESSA
# [2] = target: T2, human amylin 3(a) receptor (human calcitonin receptor + RAMP-3) (human, UniProt P30988 25-474; O60896 24-148); assay: cell-based or functional assay
# T2 sequence (looked up) 1: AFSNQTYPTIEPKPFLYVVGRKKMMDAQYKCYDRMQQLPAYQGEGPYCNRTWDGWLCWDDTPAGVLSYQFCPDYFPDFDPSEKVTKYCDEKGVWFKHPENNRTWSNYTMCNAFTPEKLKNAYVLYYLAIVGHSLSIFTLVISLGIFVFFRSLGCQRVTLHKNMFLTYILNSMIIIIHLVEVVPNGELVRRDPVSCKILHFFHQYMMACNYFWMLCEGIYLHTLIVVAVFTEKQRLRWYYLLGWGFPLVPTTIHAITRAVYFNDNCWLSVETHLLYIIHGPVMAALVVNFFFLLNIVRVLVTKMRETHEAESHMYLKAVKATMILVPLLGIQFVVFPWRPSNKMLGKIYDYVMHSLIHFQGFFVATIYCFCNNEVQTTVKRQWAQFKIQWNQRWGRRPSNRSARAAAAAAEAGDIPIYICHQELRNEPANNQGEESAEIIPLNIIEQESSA
# T2 sequence (looked up) 2: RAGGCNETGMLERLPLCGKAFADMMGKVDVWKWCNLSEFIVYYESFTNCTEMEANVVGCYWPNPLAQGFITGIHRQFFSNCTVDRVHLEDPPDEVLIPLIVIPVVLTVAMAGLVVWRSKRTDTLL
Binder,CTa receptor human EC50 [1] [nM],Amylin receptor human EC50 [2] [nM]
B1,0.0315,0.0555
KCNTATCATQRLAEFLVHSSK([AEEA-AEEA-γGlu-19‑carboxyheptadecanoyl])NFGPILPSTNVGSHTY-NH2 (disulfide 2-7),0.48,1.09
KCNTATCATQRLAEFLHHSSSNFGK([AEEA-AEEA-γGlu-19‑carboxyheptadecanoyl])ILSSTNVGSHTY-NH2 (disulfide 2-7),0.142,0.416
B2,0.097,0.103
B3,0.247,0.391
KCNTATCATQRLANFLHHSSHNFGK([AEEA-AEEA-γGlu-19‑carboxyheptadecanoyl])ILSSTNVGSHTY-NH2 (disulfide 2-7),0.194,0.39
B4,0.101,0.076
B5,0.266,0.291
KCNTATCATQRLAEFLVHSSK([AEEA-AEEA-γGlu-19‑carboxyheptadecanoyl])NFGPILPPTNVGSHTY-NH2 (disulfide 2-7),0.601,0.999
KCNTATCATQRLAEFLVHSSK([AEEA-AEEA-γGlu-19‑carboxyheptadecanoyl])NFGPILSSTNVGSHTY-NH2 (disulfide 2-7),0.336,0.858
